Source: patent US20250084177A1 (HUAHUI HEALTH, published 2025)

How the values were obtained:
[1] = target: T1, hCD98 ECD-His6-Avi (human, UniProt P08195 105-529, biotinylated by BirA ligase on the Avi tag (form used in ELISA)); test: SPR (Biacore T200), antibody captured, hCD98 ECD as analyte, 1:1 Langmuir model
T1 construct: also called hCD98 ECD-His6-Avi-Biotin; not shown: His6-Avi tag
T1 sequence: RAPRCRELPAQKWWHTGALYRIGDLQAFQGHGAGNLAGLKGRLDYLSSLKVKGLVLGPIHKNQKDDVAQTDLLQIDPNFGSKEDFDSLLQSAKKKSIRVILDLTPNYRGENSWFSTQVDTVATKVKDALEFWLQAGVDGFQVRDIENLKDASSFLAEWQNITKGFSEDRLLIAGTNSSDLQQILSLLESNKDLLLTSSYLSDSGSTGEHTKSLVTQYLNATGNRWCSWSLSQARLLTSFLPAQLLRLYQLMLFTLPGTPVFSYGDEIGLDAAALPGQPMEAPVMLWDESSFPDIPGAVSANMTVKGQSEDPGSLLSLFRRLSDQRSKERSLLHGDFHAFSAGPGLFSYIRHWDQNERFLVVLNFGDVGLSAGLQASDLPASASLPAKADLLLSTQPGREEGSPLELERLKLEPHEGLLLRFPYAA

[2] = target: T1, hCD98 ECD-His6-Avi; test: ELISA at pH 7.4 and pH 6.5 on hCD98 ECD-His6-Avi-Biotin
[3] = target: T1, hCD98 ECD-His6-Avi; test: ELISA at pH 6.5 on hCD98 ECD-His6-Avi-Biotin
[4] = target: T1, hCD98 ECD-His6-Avi; test: ELISA at pH 7.4 on hCD98 ECD-His6-Avi-Biotin
[5] = target: T1, hCD98 ECD-His6-Avi; test: ELISA at pH 7.4 and pH 6.5 on hCD98 ECD
[6] = target: T1, hCD98 ECD-His6-Avi; test: ELISA at pH 6.5, biotinylated hCD98 ECD captured on streptavidin; pH 6.5
Method: (§1) For the ELISA-based analysis of antibody binding with antigen, biotinylated protein antigens were captured with streptavidin (Sigma-Aldrich) coated 96-well plates (Nunc, MaxiSorp™). Then, serially diluted antibodies were added, and detected by adding an HRP-labeled goat polyclonal anti-Human IgG Fc (Thermo Fisher Scientific).

[7] = target: T1, hCD98 ECD-His6-Avi; test: ELISA at pH 7.4, biotinylated hCD98 ECD captured on streptavidin; pH 7.4
Method: as §1

[8] = target: T2, HEK293T-mCD98 (Mus musculus, UniProt P10852); test: FACS on leukocytes of C57BL/6 mice, FITC anti-human IgG secondary
T2 construct: full length, on cells or tissue; Cell-surface counterpart of m7 (the soluble mCD98 ECD), as m5 is of m4; also called mouse CD98 (mCD98) on cells; CD98 of C57BL/6 kidney and leukocytes
T2 sequence (CD98 heavy chain, looked up): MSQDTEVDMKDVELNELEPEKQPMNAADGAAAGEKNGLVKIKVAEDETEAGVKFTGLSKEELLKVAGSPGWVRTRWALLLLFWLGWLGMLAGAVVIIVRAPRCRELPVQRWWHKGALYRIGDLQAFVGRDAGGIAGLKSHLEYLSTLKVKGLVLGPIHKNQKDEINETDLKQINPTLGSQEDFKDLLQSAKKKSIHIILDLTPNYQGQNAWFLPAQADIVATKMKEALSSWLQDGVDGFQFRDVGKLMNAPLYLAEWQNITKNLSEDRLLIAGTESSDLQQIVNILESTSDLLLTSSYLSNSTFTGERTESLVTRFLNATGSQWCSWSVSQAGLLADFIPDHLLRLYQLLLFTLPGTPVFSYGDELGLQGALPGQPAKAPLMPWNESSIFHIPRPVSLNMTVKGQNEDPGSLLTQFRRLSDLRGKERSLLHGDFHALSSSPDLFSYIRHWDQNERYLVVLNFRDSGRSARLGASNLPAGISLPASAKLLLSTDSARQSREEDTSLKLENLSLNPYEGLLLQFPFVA

[9] = target: T3, mouse CD98 (mCD98) ECD (mouse, UniProt P10852 100-526); test: SPR (Biacore T200), antibody captured, CD98 ECD as analyte; table cells 'n.m.'
T3 construct: extracellular domain; By the methods the CD98 ECDs were His6-Avi-tagged; also called murine CD98
T3 sequence (looked up): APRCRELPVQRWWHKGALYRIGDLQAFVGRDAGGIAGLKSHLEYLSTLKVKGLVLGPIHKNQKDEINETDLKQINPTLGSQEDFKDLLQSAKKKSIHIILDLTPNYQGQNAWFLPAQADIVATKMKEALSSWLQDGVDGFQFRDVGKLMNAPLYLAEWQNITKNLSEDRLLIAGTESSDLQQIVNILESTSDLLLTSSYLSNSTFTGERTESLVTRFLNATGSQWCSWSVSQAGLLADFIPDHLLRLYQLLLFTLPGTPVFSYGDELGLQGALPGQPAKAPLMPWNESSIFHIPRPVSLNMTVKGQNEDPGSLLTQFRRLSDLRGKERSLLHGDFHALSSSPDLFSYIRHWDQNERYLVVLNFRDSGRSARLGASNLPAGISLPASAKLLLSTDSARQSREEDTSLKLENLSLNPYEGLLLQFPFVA
Method: (§2) Kinetic analysis of the bindings of anti-CD98 antibodies to the ECD of CD98, and the ECD of FcγRs were performed on a Biacore T200 instrument (Biacore, GE Healthcare). Anti-hFc Ab or protein A/G (Thermo Fisher Scientific) was covalently attached to the surface of a CM5 sensor chip using an amine coupling kit (GE Healthcare). Antibodies at optimal concentrations were captured on the chip and the analytes (CD98 or FcγRs) were then injected at 2-fold serial diluted concentrations. Binding kinetics were evaluated using a 1:1 Langmuir binding model. The ka, kd, and KD values were calculated using Biacore T200 evaluation software.

[10] = target: T1, hCD98 ECD-His6-Avi; test: SPR (Biacore T200), antibody captured, CD98 ECD as analyte, 1:1 Langmuir model
Method: as §2

[11] = target: T1, hCD98 ECD-His6-Avi; test: ELISA, EC50 ratio pH 7.4/6.5 against that of S1-F4 Y97E
Method: as §1

[12] = target: T1, hCD98 ECD-His6-Avi; test: ELISA at pH 6.5, ratio of EC50 values against S1-F4 Y97E
[13] = target: T1, hCD98 ECD-His6-Avi; test: ELISA at pH 6.5, biotinylated hCD98 ECD captured on streptavidin
Method: as §1

[14] = target: T1, hCD98 ECD-His6-Avi; test: ELISA at pH 7.4, biotinylated hCD98 ECD captured on streptavidin, HRP anti-human IgG Fc
Method: as §1

[15] = target: T3, mouse CD98 (mCD98) ECD; test: SPR (Biacore T200), antibody captured, mouse CD98 ECD as analyte, 1:1 Langmuir model
Method: as §2

[16] = target: T4, human CD98 (hCD98) on cells (human, UniProt P08195 2-529); test: immunofluorescence on kidney sections of CD98 humanized mice (hCD98 ECD knock-in), FITC anti-human IgG secondary
T4 construct: also called CHO-hCD98; hCD98-expressing CHO cells
T4 sequence: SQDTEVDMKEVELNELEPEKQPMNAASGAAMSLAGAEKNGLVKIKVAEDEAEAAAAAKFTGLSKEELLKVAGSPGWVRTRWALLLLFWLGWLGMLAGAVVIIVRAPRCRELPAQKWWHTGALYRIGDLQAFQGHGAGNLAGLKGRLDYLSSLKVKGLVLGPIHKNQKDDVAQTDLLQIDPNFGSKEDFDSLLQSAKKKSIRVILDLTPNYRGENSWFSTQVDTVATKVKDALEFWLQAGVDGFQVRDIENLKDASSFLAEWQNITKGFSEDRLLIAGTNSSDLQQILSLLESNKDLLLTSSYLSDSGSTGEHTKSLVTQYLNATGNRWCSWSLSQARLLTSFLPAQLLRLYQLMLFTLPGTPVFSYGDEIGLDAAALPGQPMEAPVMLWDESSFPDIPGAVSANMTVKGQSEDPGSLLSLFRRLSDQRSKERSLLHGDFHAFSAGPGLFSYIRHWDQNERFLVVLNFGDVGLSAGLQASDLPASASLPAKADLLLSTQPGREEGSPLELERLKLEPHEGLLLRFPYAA

[17] = target: T1, hCD98 ECD-His6-Avi; test: SPR (Biacore T200), antibody captured, hCD98 ECD as analyte
Method: as §2

B1: IGN523 (antibody, V domains shown)
VH: QVQLVQSGAEVKKPGSSVKVSCKASGNAFTNYLIEWVRQAPGQGLEWMGVINPGSGITNYNEKFKGKATITADKSTSTAYMELSSLRSEDTAVYYCSGSANWFAYWGQGTLVTVSS
VL: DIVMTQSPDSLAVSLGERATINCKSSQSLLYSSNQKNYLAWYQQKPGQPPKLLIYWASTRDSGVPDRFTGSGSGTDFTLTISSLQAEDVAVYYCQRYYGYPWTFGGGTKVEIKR
Q: With B1 as the binder, how does the Kd [1] read?
A: 0.722 nM

Q: And the koff [1]?
A: 0.000145 s⁻¹

Q: What about the kon [1] of the same binder?
A: 201000 M⁻¹ s⁻¹

B2: Ab8332 (antibody, V domains shown)
VH: QVQLVQSGAEVKKPGASVKVSCKASGYTFTSYQMHWVRQAPGQGLEWMGIINPSGGSTSYAQKFQGRVTMTRDTSTSTVYMELSSLRSEDTAVYYCARGYEDSNTHQHPIFFDIWGQGTMVTVSS
VL: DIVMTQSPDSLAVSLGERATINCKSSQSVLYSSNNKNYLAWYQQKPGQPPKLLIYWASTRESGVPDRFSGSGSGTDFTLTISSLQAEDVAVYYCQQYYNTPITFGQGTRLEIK
notes: human IgG1 format by the methods
Q: With B2 as the binder, how does the “EC50 ratio (pH 7.4/6.5)” value [2] read?
A: 50.7

Q: And the “EC50 (read off the curve)” value [3]?
A: ~0.1 nM

Q: What about the “EC50 (read off the curve)” value [4] of the same binder?
A: ~5 nM

B3: H15L1 (antibody, human IgG1, V domains shown)
VH: QVQLVQSGAEVKKPGASVKVSCKASGYTFTSYQMHWVRQAPGQGLEWMGIINDKHGSTSYAQKFQGRVTMTRDTSTSTVYMELSSLRSEDTAVYYCARGYEDSNTHQHPIFFDIWGQGTMVTVSS
VL: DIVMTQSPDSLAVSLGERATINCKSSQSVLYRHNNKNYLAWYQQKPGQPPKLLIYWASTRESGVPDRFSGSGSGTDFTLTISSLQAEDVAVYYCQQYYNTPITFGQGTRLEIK
notes: as for B2
Q: With B3 as the binder, how does the “EC50 ratio (pH 7.4/6.5)” value [2] read?
A: 11.8

B4: H15L35 (antibody, human IgG1, V domains shown)
VH: QVQLVQSGAEVKKPGASVKVSCKASGYTFTSYQMHWVRQAPGQGLEWMGIINDKHGSTSYAQKFQGRVTMTRDTSTSTVYMELSSLRSEDTAVYYCARGYEDSNTHQHPIFFDIWGQGTMVTVSS
VL: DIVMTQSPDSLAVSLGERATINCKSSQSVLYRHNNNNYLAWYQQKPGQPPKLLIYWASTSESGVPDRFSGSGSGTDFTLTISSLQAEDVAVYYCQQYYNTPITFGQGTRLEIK
notes: as for B2
Q: For B4, which “EC50 ratio (pH 7.4/6.5)” value [2] is on record?
A: 16

B5: S1-F4 Y97E (antibody, V domains shown)
VH: QVQLVQSGAEVKKPGASVKVSCKASGYTFTSYYMHWVRQAPGQGLEWMGIINPSGGSTSYAQKFQGRVTMTRDTSTSTVYMELSSLRSEDTAVYYCARGYEDILTGSRPIFFDIWGQGTMVTVSS
VL: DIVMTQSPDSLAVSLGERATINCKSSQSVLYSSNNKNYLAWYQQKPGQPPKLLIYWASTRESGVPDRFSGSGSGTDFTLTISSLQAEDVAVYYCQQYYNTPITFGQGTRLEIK
notes: S1-F4 with Y97E in HCDR3; also called S1-F4 VH Y97E
Q: What does the source list for B5?
A: EC50 ratio (pH 7.4/6.5) [5]: 2.7; EC50 [6]: 1.69 nM; EC50 [7]: 4.53 nM

B6: S1-F4 (antibody, V domains shown)
VH: QVQLVQSGAEVKKPGASVKVSCKASGYTFTSYYMHWVRQAPGQGLEWMGIINPSGGSTSYAQKFQGRVTMTRDTSTSTVYMELSSLRSEDTAVYYCARGYYDILTGSRPIFFDIWGQGTMVTVSS
VL: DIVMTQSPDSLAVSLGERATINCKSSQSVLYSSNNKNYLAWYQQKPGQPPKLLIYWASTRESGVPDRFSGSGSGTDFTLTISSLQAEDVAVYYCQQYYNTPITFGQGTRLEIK
notes: Obtained by VH chain shuffling of HN2-G9; also called anti-hCD98 antibody S1-F4
Q: Which results are given for B6?
A: EC50 [6]: 0.059 nM; EC50 [7]: 0.046 nM; binding result [8]: no binding (tested: 10 µg/ml); binding result [9]: no binding; Kd [10]: 58.2 nM; koff [10]: 0.0576 s⁻¹; kon [10]: 990000 M⁻¹ s⁻¹

B7: H15L54 (antibody, human IgG1, V domains shown)
VH: QVQLVQSGAEVKKPGASVKVSCKASGYTFTSYQMHWVRQAPGQGLEWMGIINDKHGSTSYAQKFQGRVTMTRDTSTSTVYMELSSLRSEDTAVYYCARGYEDSNTHQHPIFFDIWGQGTMVTVSS
VL: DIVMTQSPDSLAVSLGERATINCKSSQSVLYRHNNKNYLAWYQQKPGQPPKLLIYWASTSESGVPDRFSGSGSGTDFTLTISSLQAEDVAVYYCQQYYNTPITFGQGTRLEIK
notes: human IgG1 format by the methods; also called pH-dependent anti-hCD98 antibody H15L54
Q: Which results are given for B7?
A: EC50 ratio (pH 7.4/6.5) [5]: 38; fold higher binding pH-dependence than S1-F4 Y97E [11]: ~14 fold; fold higher binding activity at pH 6.5 than S1-F4 Y97E [12]: ~7 fold; EC50 [13]: 0.247 nM; EC50 (read off the curve) [14]: ~5 nM

B8: BC8 (antibody, V domains shown)
VH: EVQLVESGGGVVQPGRSLRLSCAASGFTVSNNYMSWVRQAPGKGLEWVSVIYSGGKTYYADSAKGRFTISRDNSKNTVFLQMNSLRVEDTAVYYCARVSGLGWFDPWGQGTLVTVSS
VL: not shown
notes: human IgG1 format by the methods (detected with anti-human IgG); also called anti-mouse CD98 antibody BC8; mCD98-specific Ab
Q: How did the Kd [15] turn out when B8 was run?
A: 86.1 nM

Q: What about the koff [15] of the same binder?
A: 0.00344 s⁻¹

Q: And the kon [15]?
A: 40000 M⁻¹ s⁻¹

Q: Does B8 bind [16]?
A: no binding (tested: 15 µg/ml)

B9: HN2-G9 (antibody, V domains shown)
VH: QVQLVQSGAEVKKPGSSVKVSCKASGYTFTSYYMHWVRQAPGQGLEWMGIINPSGGSTSYAQKFQGRVTMTRDTSTSTVYMELSSLRSEDTAVYFCARGYCSGGRCYSDFQHWGQGTLVTVSS
VL: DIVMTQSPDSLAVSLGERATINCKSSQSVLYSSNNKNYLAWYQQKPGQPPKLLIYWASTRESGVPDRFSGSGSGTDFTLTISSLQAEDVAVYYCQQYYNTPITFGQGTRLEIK
Q: How did the Kd [17] turn out when B9 was run?
A: 1290 nM

Q: What about the koff [1] of the same binder?
A: 0.102 s⁻¹

Q: And the kon [1]?
A: 787000 M⁻¹ s⁻¹
